Test results taken from US20240252628A1 (ACCELERON PHARMA, published 2024).

Columns and labels:
[1] = biological target: T1, activin A (UniProt P08476 311-426); assay: SPR (Biacore), anti-Fc capture of receptor
T1 construct: The same holds for m2-m11
T1 sequence (looked up): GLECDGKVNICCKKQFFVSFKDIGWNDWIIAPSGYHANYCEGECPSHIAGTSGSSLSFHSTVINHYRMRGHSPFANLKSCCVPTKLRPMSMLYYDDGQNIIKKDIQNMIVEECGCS
Description: (§1) A Biacore™-based binding assay was used to compare ligand binding selectivity of the ActRIIB-Fc:ALK4-Fc heterodimeric complex described above with that of ActRIIB-Fc and ALK4-Fc homodimer complexes. The ActRIIB-Fc:ALK4-Fc heterodimer, ActRIIB-Fc homodimer, and ALK4-Fc homodimer were independently captured onto the system using an anti-Fc antibody. Ligands were injected and allowed to flow over the captured receptor protein. Results are summarized in the table below, in which ligand off-rates (kd) most indicative of effective ligand traps are denoted in bold.

[2] = biological target: T2, activin B (UniProt P09529 293-407); assay: SPR (Biacore), anti-Fc capture of receptor
T2 sequence (looked up): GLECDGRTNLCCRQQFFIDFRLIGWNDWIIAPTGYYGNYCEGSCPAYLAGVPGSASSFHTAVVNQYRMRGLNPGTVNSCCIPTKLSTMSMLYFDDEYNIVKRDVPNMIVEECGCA
Description: as §1

- Kd [1]: 20 nM
- koff [1]: 0.012 s⁻¹
- kon [1]: 580000 M⁻¹ s⁻¹
- binding result [2]: no binding
B1: ALK4-Fc homodimer (Fc fusion, not shown: a dimerising Fc or GST)
chain: SGPRGVQALLCACTSCLQANYTCETDGACMVSIFNLDGMEHHVRTCIPKVELVPAGKPFYCLSSEDLRNTHCCYTDYCNRIDLRVPSGHLKEPEHPSMWGPVE
